Source: US20050037413A1

Tests used:
glutathione Sepharose-4B = experiment: pull-down from lysate with glutathione Sepharose-4B, SDS-PAGE densitometry, relative to GST on Sepharose-4B
[1] = biological target: glutathione (GSH) immobilized on dendron-modified controlled pore glass, sample E3 (Fmoc-(9)acid dendron); experiment: pull-down from lysate with E3 beads, SDS-PAGE densitometry, relative to GST on E3
[2] = biological target: glutathione (GSH) immobilized on dendron-modified controlled pore glass, sample E1 (Fmoc-(3)acid dendron); experiment: pull-down from lysate with E1 beads, SDS-PAGE densitometry, relative to GST on E1
[3] = biological target: glutathione (GSH) immobilized on dendron-modified controlled pore glass, sample E1 (Fmoc-(3)acid dendron); experiment: GST captured on beads, sample weight adjusted to the same number of GSH, SDS-PAGE densitometry
[4] = biological target: glutathione (GSH) immobilized on dendron-modified controlled pore glass, sample E3 (Fmoc-(9)acid dendron); experiment: as above

Row | Substance | binding efficiency (relative, GST on the same matrix set at 100%) (glutathione Sepharose-4B) [%] | relative binding capacity (GST on the same matrix set at 100%) [1] [%] | relative binding capacity (GST on the same matrix set at 100%) [2] [%] | Percentage of ligand utilization (%) [3] [%] | Percentage of ligand utilization (%) [4] [%]
1 | GST-Munc-18 fragment (98 kDa) (from UniProt P08515 1-218) | 17 | 23 | 22 |  | 
2 | GST-PX^p47 (41 kDa), GST fused to the PX domain of p47^phox (from UniProt P08515 1-218) | 104 | 85 | 92 |  | 
3 | glutathione S-transferase (GST) (28 kDa) (from UniProt P08515 1-218) (enzyme) |  |  |  | 29 | 31
